According to article PMC12135187, “A role for pH dynamics regulating transcription factor DNA-binding selectivity”:

What was measured:
Details in all cases: protein: recombinant; tags: N-terminal GST (pGEX-6P-2); label: 6-FAM; blunt
FOXM1 DBD H287K [1] = target: T1, FOXM1 DBD H287K (UniProt Q08050 222-360, H287K); test: fluorescence anisotropy; pH 7.5; 20 mM HEPES, 140 mM KCl, 0.05 mM TCEP-HCl, pH 7.0 or 7.5 (pH titration 6.8-8.2), room temperature 30 min, 7.5 nM FAM-DNA
T1 sequence: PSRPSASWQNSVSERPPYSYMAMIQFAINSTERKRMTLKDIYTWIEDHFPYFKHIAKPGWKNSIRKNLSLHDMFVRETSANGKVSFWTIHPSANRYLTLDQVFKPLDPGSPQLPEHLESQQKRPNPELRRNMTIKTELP

FOXC2 DBD H122K [2] = target: T2, FOXC2 DBD H122K (UniProt Q99958 72-172, H122K); test: as above
T2 sequence: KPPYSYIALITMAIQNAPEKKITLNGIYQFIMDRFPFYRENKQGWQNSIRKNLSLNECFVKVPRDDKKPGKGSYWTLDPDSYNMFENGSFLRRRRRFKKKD

FOXC2 DBD H122N [3] = target: T3, FOXC2 DBD H122N (UniProt Q99958 72-172, H122N); test: fluorescence anisotropy; pH 7.0; 20 mM HEPES, 140 mM KCl, 0.05 mM TCEP-HCl, pH 7.0 or 7.5 (pH titration 6.8-8.2), room temperature 30 min, 7.5 nM FAM-DNA
T3 sequence: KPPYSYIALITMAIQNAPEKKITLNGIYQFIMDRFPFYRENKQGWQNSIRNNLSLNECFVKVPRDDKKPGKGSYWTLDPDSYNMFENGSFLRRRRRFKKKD

FOXM1 DBD H287K [4] = target: T1, FOXM1 DBD H287K; test: as above
FOXC2 DBD WT = target: T4, FOXC2 DBD WT (UniProt Q99958 72-172); test: fluorescence anisotropy; pH 7.0; higher affinity than at pH 7.5; 20 mM HEPES, 140 mM KCl, 0.05 mM TCEP-HCl, pH 7.0 or 7.5 (pH titration 6.8-8.2), room temperature 30 min, 7.5 nM FAM-DNA
T4 sequence: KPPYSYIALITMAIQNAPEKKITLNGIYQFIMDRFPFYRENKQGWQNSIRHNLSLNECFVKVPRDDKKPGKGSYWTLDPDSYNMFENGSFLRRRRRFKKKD

FOXN1 DBD WT = target: T5, FOXN1 DBD WT (UniProt O15353 270-366); test: as above
T5 sequence: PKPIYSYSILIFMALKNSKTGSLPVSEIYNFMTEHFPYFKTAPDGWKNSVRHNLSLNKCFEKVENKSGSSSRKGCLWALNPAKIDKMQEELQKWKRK

FOXM1 DBD WT = target: T6, FOXM1 DBD WT (UniProt Q08050 222-360); test: as above
T6 sequence: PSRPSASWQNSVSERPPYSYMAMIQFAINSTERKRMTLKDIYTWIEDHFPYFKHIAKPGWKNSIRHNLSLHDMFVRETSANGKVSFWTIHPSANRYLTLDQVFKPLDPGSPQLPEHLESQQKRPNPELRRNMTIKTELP

FOXC2 DBD H122N [5] = target: T3, FOXC2 DBD H122N; test: fluorescence anisotropy; pH 7.5; similar to WT at pH 7.5; 20 mM HEPES, 140 mM KCl, 0.05 mM TCEP-HCl, pH 7.0 or 7.5 (pH titration 6.8-8.2), room temperature 30 min, 7.5 nM FAM-DNA
FOXC2 DBD H122K [6] = target: T2, FOXC2 DBD H122K; test: fluorescence anisotropy; pH 7.0; 20 mM HEPES, 140 mM KCl, 0.05 mM TCEP-HCl, pH 7.0 or 7.5 (pH titration 6.8-8.2), room temperature 30 min, 7.5 nM FAM-DNA

B1: FkhP (dsDNA)
DNA 1: CCATAAACAAC
DNA 2: GTTGTTTATGG
B1 was tested, and the Ka (FOXM1 DBD H287K [1]) was 1.8 ± 0.27 μM (as printed; KA = 1/KD, so presumably μM^-1), the Ka (FOXC2 DBD H122K [2]) was 0.91 ± 0.08 μM (as printed; KA = 1/KD, so presumably μM^-1) and the Ka (FOXC2 DBD H122N [3]) was 0.14 ± 0.03 μM (as printed; KA = 1/KD, so presumably μM^-1). For the same binder, the Ka (FOXM1 DBD H287K [4]) was 4.1 ± 0.81 μM (as printed; KA = 1/KD, so presumably μM^-1), the binding result (FOXC2 DBD WT) was “binds” and the binding result (FOXN1 DBD WT) was “binds”. For the same binder, the binding result (FOXM1 DBD WT) was “binds”, the Ka (FOXC2 DBD H122N [5]) was 0.1 ± 0.01 μM (as printed; KA = 1/KD, so presumably μM^-1) and the Ka (FOXC2 DBD H122K [6]) was 0.86 ± 0.15 μM (as printed; KA = 1/KD, so presumably μM^-1).
